# Article PMC12278311, “PNUTS:PP1 recruitment to Tox4 regulates chromosomal dispersal in Drosophila germline development” (Cell reports, 2025)
# T1: PNUTS N-terminal domain (TND), rat, residues 5-160, C48S (rat, C48S)
# T1 construct: PP1 nuclear targeting subunit (PNUTS, PPP1R10), rat, residues 5-160; Cloned in pRP1b; His6 tag cleaved with TEV protease; also called PNUTS C48S; PNUTS5-160 C48S; source: E. coli BL21 (DE3), purified (HisTrap, TEV cleavage, Ni-NTA flow-through, SEC)
# T1 chain: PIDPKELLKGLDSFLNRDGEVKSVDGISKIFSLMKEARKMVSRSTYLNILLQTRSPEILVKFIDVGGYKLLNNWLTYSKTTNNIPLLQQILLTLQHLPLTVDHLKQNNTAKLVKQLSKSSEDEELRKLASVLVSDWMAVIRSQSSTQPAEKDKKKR
# T2: PNUTS TND (rat PNUTS 5-160, C48S) (rat, UniProt O55000 5-160, C48S)
# T2 construct: PNUTS (PPP1R10), rat, N-terminal TFIIS domain, residues 5-160; cloned in pRP1b; 15N-labelled for NMR; also called PNUTS N-terminal domain; PNUTS NTD; source: E. coli BL21 (DE3), purified (HisTrap, TEV cleavage, Ni-NTA flow-through, SEC)
# T2 sequence (looked up): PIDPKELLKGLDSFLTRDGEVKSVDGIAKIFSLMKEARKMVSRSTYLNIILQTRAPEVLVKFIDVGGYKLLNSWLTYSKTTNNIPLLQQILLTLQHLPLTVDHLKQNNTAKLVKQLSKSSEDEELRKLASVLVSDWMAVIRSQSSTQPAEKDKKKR
# B1: Tox4 C-terminal domain, human, residues 571-621, C601S (domain or fragment)
# chain: RCVRSGCENPPIVSKDWDNEYCSNECVVKHSRDVFLAWVASRNSNTVVFVK
# notes: TOX4, human, residues 571-621; Cloned in pTHMT (His6-MBP-TEV site); also called TOX4 C601S; Tox4571-621 C601S; source: E. coli BL21 (DE3) with 0.1 mM ZnSO4, purified (HisTrap, TEV cleavage, Ni-NTA and amylose resin, SEC); not shown: His6, N-terminal, cleaved; MBP, N-terminal, cleaved
# B2: Tox4 CTD (human Tox4 571-621) (domain or fragment, UniProt O94842 571-621, looked up)
# chain: RCVRSGCENPPIVSKDWDNEYCSNECVVKHCRDVFLAWVASRNSNTVVFVK
# notes: TOX4, human, C-terminal domain, residues 571-621; also called Tox4 C-terminal domain; zinc-loaded Tox4; source: E. coli BL21 (DE3) with 0.1 mM ZnSO4, purified (HisTrap, TEV cleavage, amylose resin, SEC); not shown: His6, N-terminal, cleaved; MBP, N-terminal, cleaved
# B3: Tox4 CTD (human Tox4 571-621, C601S) (domain or fragment, UniProt O94842 571-621, looked up)
# chain: RCVRSGCENPPIVSKDWDNEYCSNECVVKHSRDVFLAWVASRNSNTVVFVK
# notes: TOX4, human, C-terminal domain, residues 571-621; also called Tox4_(C601S); source: E. coli BL21 (DE3) with 0.1 mM ZnSO4, purified (HisTrap, TEV cleavage, amylose resin, SEC); not shown: His6, N-terminal, cleaved; MBP, N-terminal, cleaved
# Experiments:
# Settings in all cases: both partners purified
# [1] = molecular target: T1, PNUTS N-terminal domain (TND), rat, …; experiment: ITC; Tox4 titrated into PNUTS; Affinity-ITC, 25 °C; 20 mM Tris pH 8.5, 150 mM NaCl, 0.1 mM ZnSO4, 0.5 mM TCEP; one-site model assuming 1:1 stoichiometry; 3 replicates
# [2] = molecular target: T2, PNUTS TND (rat PNUTS 5-160, C48S); experiment: NMR titration; 2D [1H,15N] HSQC of 15N-labelled PNUTS with zinc-loaded Tox4 at a 1:2 molar ratio; 20 mM MES pH 6, 150 mM NaCl, 5 mM DTT; 298 K
# [3] = molecular target: T2, PNUTS TND (rat PNUTS 5-160, C48S); experiment: ITC; Tox4 titrated into PNUTS at 25°C; 20 mM Tris pH 8.5, 150 mM NaCl, 0.1 mM ZnSO4, 0.5 mM TCEP; one-site model assuming 1:1
binder,measurement,setting,value
B1,Kd,[1],0.3 ± 0.2 nM
B2,binding result,[2],binds
B3,Kd,[3],0.3 nM
